Data from PMC11934925.
Substitutions are numbered along the chain they refer to.

Experiments:
FLI1 F362A 259-371 [1] = target: T1, FLI1 F362A 259-371 (UniProt Q01543 259-371, F362A); assay: fluorescence anisotropy
T1 sequence: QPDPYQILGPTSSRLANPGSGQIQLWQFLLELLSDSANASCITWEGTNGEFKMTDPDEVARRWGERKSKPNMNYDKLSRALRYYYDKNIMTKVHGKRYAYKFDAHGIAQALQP

FLI1 F362A 259-399 [2] = target: T2, FLI1 F362A 259-399 (UniProt Q01543 259-399, F362A); assay: fluorescence anisotropy
T2 sequence: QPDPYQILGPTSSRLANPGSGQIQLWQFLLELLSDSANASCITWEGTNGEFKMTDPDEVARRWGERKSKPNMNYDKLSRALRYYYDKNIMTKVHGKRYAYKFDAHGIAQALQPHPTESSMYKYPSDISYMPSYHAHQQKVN

FLI1 F362A 259-375 [3] = target: T3, FLI1 F362A 259-375 (UniProt Q01543 259-375, F362A); assay: fluorescence anisotropy
T3 sequence: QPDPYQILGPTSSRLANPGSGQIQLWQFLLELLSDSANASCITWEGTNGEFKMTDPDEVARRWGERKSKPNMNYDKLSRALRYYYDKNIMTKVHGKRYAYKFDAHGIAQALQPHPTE

FLI1 F362A 276-399 [4] = target: T4, FLI1 F362A 276-399 (UniProt Q01543 276-399, F362A); assay: fluorescence anisotropy
T4 sequence: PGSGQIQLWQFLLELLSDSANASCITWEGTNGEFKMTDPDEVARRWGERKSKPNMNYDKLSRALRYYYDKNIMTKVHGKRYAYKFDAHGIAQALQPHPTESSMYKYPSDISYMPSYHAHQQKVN

FLI1 F362A 276-375 [5] = target: T5, FLI1 F362A 276-375 (UniProt Q01543 276-375, F362A); assay: fluorescence anisotropy
T5 sequence: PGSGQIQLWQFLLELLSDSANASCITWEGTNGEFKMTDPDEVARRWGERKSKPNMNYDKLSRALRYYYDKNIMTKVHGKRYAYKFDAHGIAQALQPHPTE

FLI1 276-375 D333G = target: T6, FLI1 276-375 D333G (UniProt Q01543 276-375, D333G;F362A); assay: fluorescence anisotropy
T6 sequence: T5 sequence with D58G

FLI1 276-375 N329E/D333G [6] = target: T7, FLI1 276-375 N329E/D333G (UniProt Q01543 276-375, N329E;D333G;F362A); assay: fluorescence anisotropy
T7 sequence: T5 sequence with N54E, D58G

FLI1 276-375 N329E [7] = target: T8, FLI1 276-375 N329E (UniProt Q01543 276-375, N329E;F362A); assay: fluorescence anisotropy
T8 sequence: T5 sequence with N54E

FLI1 DBD 259-399 WT = target: T9, FLI1 DBD 259-399 WT (UniProt Q01543 259-399); assay: X-ray crystallography
T9 sequence: T2 sequence with A104F

FLI1 F362A 259-399 [8] = target: T2, FLI1 F362A 259-399; assay: X-ray crystallography
FLI1 F362A 259-371 [9] = target: T1, FLI1 F362A 259-371; assay: fluorescence anisotropy; remark: listed apart in the source
FLI1 276-375 N329E/D333G [10] = target: T7, FLI1 276-375 N329E/D333G; assay: fluorescence anisotropy; remark: listed apart in the source
FLI1 276-371 [11] = target: T10, FLI1 276-371 (UniProt Q01543 276-371); assay: fluorescence anisotropy
T10 sequence: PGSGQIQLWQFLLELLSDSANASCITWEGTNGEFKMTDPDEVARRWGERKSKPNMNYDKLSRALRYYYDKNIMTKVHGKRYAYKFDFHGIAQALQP

FLI1 F362A 259-375 [12] = target: T3, FLI1 F362A 259-375; assay: fluorescence anisotropy; remark: listed apart in the source
FLI1 276-375 N329E [13] = target: T8, FLI1 276-375 N329E; assay: fluorescence anisotropy; remark: listed apart in the source
FLI1 F362A 276-399 [14] = target: T4, FLI1 F362A 276-399; assay: fluorescence anisotropy; remark: listed apart in the source
FLI1 F362A 276-375 [15] = target: T5, FLI1 F362A 276-375; assay: fluorescence anisotropy; remark: listed apart in the source
FLI1 F362A 259-375 [16] = target: T3, FLI1 F362A 259-375; assay: X-ray crystallography
FLI1 F362A 259-399 [17] = target: T2, FLI1 F362A 259-399; assay: X-ray crystallography; remark: listed apart in the source
FLI1 F362A 259-399 [18] = target: T2, FLI1 F362A 259-399; assay: EMSA
FLI1 F362A 276-399 [19] = target: T4, FLI1 F362A 276-399; assay: EMSA
FLI1 276-371 [20] = target: T10, FLI1 276-371; assay: EMSA
FLI1 F362A 276-375 [21] = target: T5, FLI1 F362A 276-375; assay: EMSA

B1: 2site_weak-weak (w-w) (dsDNA)
DNA 1: CAGAAAGGAAGGAAGTG
DNA 2: CACTTCCTTCCTTTCTG
binding signal (FLI1 F362A 259-371 [1]): 22 ± 7 cooperativity factor w | binding signal (FLI1 F362A 259-399 [2]): 41 ± 21 cooperativity factor w | binding signal (FLI1 F362A 259-375 [3]): 103 ± 26 cooperativity factor w | binding signal (FLI1 F362A 276-399 [4]): 16 ± 10 cooperativity factor w | binding signal (FLI1 F362A 276-375 [5]): 33 ± 20 cooperativity factor w | binding signal (FLI1 276-375 D333G): ~1 cooperativity factor w | binding signal (FLI1 276-375 N329E/D333G [6]): ~1 cooperativity factor w | binding signal (FLI1 276-375 N329E [7]): 6 ± 6 cooperativity factor w

B2: 2sites (dsDNA)
DNA 1: GACCGGAAGGAAGTG
DNA 2: CACTTCCTTCCGGTC
binding result (FLI1 DBD 259-399 WT): binds | binding result (FLI1 F362A 259-399 [8]): binds

B3: 1site_weak (dsDNA)
DNA 1: TTGAAGGAAGAG
DNA 2: CTCTTCCTTCAA
Kd (FLI1 F362A 259-371 [9]): 1010 ± 421 nM | Kd (FLI1 276-375 N329E/D333G [10]): 126 ± 14 nM | Kd (FLI1 276-371 [11]): 402 ± 172 nM | Kd (FLI1 F362A 259-375 [12]): 544 ± 288 nM | Kd (FLI1 276-375 N329E [13]): 275 ± 39 nM | Kd (FLI1 F362A 276-399 [14]): 146 ± 37 nM | Kd (FLI1 F362A 276-375 [15]): 137 ± 34 nM

B4: 3sites (dsDNA)
DNA 1: GACCGGAAGGAAGGAAGTG
DNA 2: CACTTCCTTCCTTCCGGTC
binding result (FLI1 F362A 259-375 [16]): binds

B5: 4sites (dsDNA)
DNA 1: GACCGGAAGGAAGGAAGGAAGTGCG
DNA 2: CGCACTTCCTTCCTTCCTTCCGGTC
binding result (FLI1 F362A 259-399 [17]): binds

B6: 2site_strong-weak (s-w) (dsDNA)
DNA 1: CAGACCGGAAGGAAGTG
DNA 2: CACTTCCTTCCGGTCTG
binding result (FLI1 F362A 259-399 [18]): binds | binding result (FLI1 F362A 276-399 [19]): binds | binding result (FLI1 276-371 [20]): binds | binding result (FLI1 F362A 276-375 [21]): binds
